Laboratory results from US20020146411A1, “Anticoagulant agents useful in treatment of thrombosis” (SmithKline Beecham Corporation, priority 1996, published 2002).
Entries after “also recorded” stand apart in the source; their conditions may differ.

Experiments:
rhFIX = biological target: T1, rhFIX (Homo sapiens, UniProt P00740, T194A); assay: Titration microcalorimetry of rhFIX binding
T1 construct: purchased Genetics Institute
Description: The interactions between rhFIX and SB 249417 BC2 and other humanized constructs were characterized by titration microcalorimetry, which measures binding interactions in solution from the intrinsic heat of binding. Nine injections of 106 uM FIX were made into the calorimeter containing 2 uM mAb SB 249417. Binding was detected in the first 4 injections as exothermic heats. At the last 5 injections the mAb binding sites were saturated with FIX and only background heats of mixing were observed. […] Nonlinear least squares analysis of the data yield the binding affinity.
The data in Table 3 indicate that the affinities of SB 249417, BC2 and its other humanized constructs are within error (a factor of 2) the same.

[1] = test system: rat carotid artery thrombosis; assay: Rat carotid artery thrombosis model, humanized mAbs, Example 8; assay type: in vivo; settings: 3.0 mg/kg i.v. bolus, 60 minutes after onset of injury
Description: In order to evaluate the efficacy of humanized anti-Factor IX antibodies in prevention of arterial thrombosis, the rat carotid artery thrombosis model as described above in Example 3 was used. Baseline parameters were established for carotid blood flow, arterial pressure, heart rate, vessel patency and activated partial thromboplastin time (aPTT). Fifteen minutes thereafter, carotid injury was effected for […]. The parameters were determined 60 minutes after onset of carotid injury. Carotid thrombus was also extracted from the carotid artery and weighed.
All agents were administered intravenously 15 minutes before the onset of carotid injury. The following treatments were examined and compared to the anti-Factor IX mAb BC2.

Factor IXa = biological target: T2, Factor IXa (Homo sapiens, UniProt P00740); assay: Binding to Factor IXa (Table I)
T2 construct: as well as the active protease, Factor IXa

Factor IX [2] = biological target: T3, Factor IX (Homo sapiens, UniProt P00740); assay: Cofactor requirement for mAb activity (Table I)
Target sequence in this assay (P00740 29-461 limits assumed): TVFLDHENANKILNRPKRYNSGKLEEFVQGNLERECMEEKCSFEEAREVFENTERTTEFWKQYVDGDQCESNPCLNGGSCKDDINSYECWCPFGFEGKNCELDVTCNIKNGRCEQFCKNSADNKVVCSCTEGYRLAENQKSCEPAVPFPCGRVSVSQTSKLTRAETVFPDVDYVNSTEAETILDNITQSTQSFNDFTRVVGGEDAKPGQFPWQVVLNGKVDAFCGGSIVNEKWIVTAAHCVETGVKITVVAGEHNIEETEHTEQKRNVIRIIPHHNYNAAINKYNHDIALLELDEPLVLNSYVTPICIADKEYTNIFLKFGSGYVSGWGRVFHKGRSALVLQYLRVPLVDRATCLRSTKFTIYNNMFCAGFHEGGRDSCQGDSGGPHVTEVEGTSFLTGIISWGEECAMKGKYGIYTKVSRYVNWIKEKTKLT

Factor IX [3] = biological target: T3, Factor IX; assay: aPTT clotting time of human plasma, anti-Factor IX mAbs; assay type: biochemical; design: Human plasma samples were either freshly drawn and kept on ice or reconstituted; host or cells: human plasma
Description: The effect of increasing concentrations of anti-coagulation factor antibodies on activated partial thromboplastin time (aPTT) of human plasma was determined in a fibrometer (Becton-Dickinson Microbiology Systems, Cockeysville, Md.) using Baxter reference procedure LIB0293-J, 3/93 revision (Baxter Scientific, Edison, N.J.).
Prior to the start of the experiment, 2 to 3 mL of 0.02 M CaCl2 in a 5 mL tube were placed into the heating chamber of the fibrometer. Human plasma samples were either freshly drawn and kept on ice or reconstituted per the manufacturer's recommendation from Hemostasis Reference Plasma (American Diagnostics, Greenwich, Conn.).
Unfractionated heparin from porcine intestinal mucosa (Sigma Chemical, St. Louis, Mo.), low molecular weight heparin from porcine intestinal mucosa (Lovenox®, enoxaparin sodium, Rhone-Poulenc Rorer Pharmaceuticals, Collegeville, Pa.) or mAb anticoagulants were prepared as approximately 50 uM stock solutions and serially diluted directly into the test plasma. A blank containing plasma without anticoagulant was included as a reference.
Two fibroTube® fibrometer cups were filled with 100 ul test plasma or 100 ul test plasma with anticoagulant and 125 ul of actin activated cephaloplastin reagent (Actin reagent, from rabbit brain cephalin in ellagic acid, available from Baxter Scientific), respectively and placed in the fibrometer wells at 37° C.
After one minute, 100 ul of actin reagent was transferred to a plasma-containing cup and the contents mixed several times with a pipette. After a 3 minute incubation, 100 ul of CaCl2, prewarmed at 37° C., was added to the plasma-actin reagent mixture using a Automatic Pipette/Timer-trigger (Becton-Dickinson). The clotting times were noted and the results in FIG. 1 are presented as clotting times as a function of final concentrations of anticoagulant in the total assay volume of 300 ul. The nominal concentration of Factor IX in the assay is 30-40 nM.
Target sequence in this assay (P00740 47-461): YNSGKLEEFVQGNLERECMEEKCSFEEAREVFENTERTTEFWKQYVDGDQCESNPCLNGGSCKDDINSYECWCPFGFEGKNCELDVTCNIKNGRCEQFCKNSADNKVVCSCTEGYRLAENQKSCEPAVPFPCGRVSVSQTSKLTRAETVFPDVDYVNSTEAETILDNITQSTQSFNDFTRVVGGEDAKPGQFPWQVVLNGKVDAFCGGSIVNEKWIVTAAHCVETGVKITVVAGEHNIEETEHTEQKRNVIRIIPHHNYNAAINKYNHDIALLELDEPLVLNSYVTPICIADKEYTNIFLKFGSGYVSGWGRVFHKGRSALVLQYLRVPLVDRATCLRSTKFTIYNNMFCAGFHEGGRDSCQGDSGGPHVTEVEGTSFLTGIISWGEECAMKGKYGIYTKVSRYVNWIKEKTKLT

[4] = test system: rat carotid artery thrombosis; assay: Rat carotid artery thrombosis model (FeCl3 injury), Example 3; assay type: in vivo
Description: In order to evaluate the efficacy of anti-Factor IX antibodies in prevention of arterial thrombosis, the rat carotid artery thrombosis model as reported by Schumacher et al. in J. Cardio. Pharm. 22, 526-533 (1993) was adapted. This model consists of segmental injury to the carotid endothelium by oxygen radicals generated by FeCl3 solution applied on the surface of the carotid artery.
In brief, rats were anesthetized with pentobarbitone sodium, the jugular vein cannulated for intravenous injections and the left femoral artery cannulated for blood pressure and heart rate monitoring. The carotid artery was isolated by aseptic technique via a surgical incision in the neck and equipped with a magnetic flow probe for blood flow measurement. After a period of stabilization, baseline parameters were established for the following variables: carotid blood flow, arterial pressure, heart rate, activated partial thromboplastin time (aPTT) and prothrombin time (PT). Thereafter, a premeasured Whatman filter paper soaked in 50% FeCl3 solution was placed on the carotid artery for 15 minutes for complete injury of the underlying endothelial cells. After removal of the FeCl3 soaked paper, the experiment was followed to completion over 60 minutes. At the end of the experiment, the carotid thrombus was extracted from the carotid artery and weighed.
All agents were administered 15 minutes prior to the onset of carotid injury. The following treatments were examined and compared to the Factor IX mAb BC2.
1. Heparin: 15, 30, 60 or 120 U/kg bolus, followed by infusion of 0.5, 1, 2 or 4 U/kg/min, respectively over 60 minutes
2. Acetylsalicylic acid (ASA, aspirin): 5 mg/kg bolus
3. Anti-Factor IX mAb BC2: 1, 3 or 6 mg/kg bolus, followed by infusion 0.3, 1, or 2 ug/kg/min, respectively over 60 minutes
4. Heparin: 30U/kg bolus+lU/kg/min+ASA at 5 mg/kg
5. Anti-Factor IX mAb BC2: 1 mg/kg+0.3 ug/kg/min+ASA at 5 mg/kg

[5] = biological target: T4, Factor IXa in Xase complex (Homo sapiens, UniProt P00740); assay: Inhibition of IXa activity in Xase complex (Table I); assay type: biochemical
T4 construct: as well as the active protease, Factor IXa

rat Factor IX = rat Factor IX (Rattus norvegicus, UniProt P16296); assay: Species cross-reactivity, rat Factor IX; assay type: binding
[6] = biological target: Factor IX to IXa conversion (Homo sapiens, UniProt P00740); assay: Inhibition of Factor IX to IXa conversion (Table I); assay type: biochemical
[7] = biological target: T5, Recombinant human Factor IX (rhFIX) (Homo sapiens, UniProt P00740, T194A); assay: BIAcore kinetics of Factor IX binding to mAb on protein A surface; settings: rhFIX 49 nM, 5 mM Ca2+, biosensor
T5 construct: purchased Genetics Institute
Description: The kinetics of Factor IX binding to SB 249417 was assessed by BIAcore analysis with antibody bound to an immobilized protein A surface. Recombinant human Factor IX (rhFIX, Genetics Institute) at 49 nM was used and measurements performed in the presence of 5 mM Ca^2+. The interaction was characterized by rapid association, kass 2.0×10^5 M^−1 s^−1 and relatively slow off-rate, kdiss=4.1×10^−4 s^−1.

Factor IX [8] = biological target: T3, Factor IX; assay: Binding to Factor IX (in vitro properties, Table I); design: Human plasma samples were either freshly drawn and kept on ice or reconstituted; host or cells: human plasma
Description: Approximately two weeks later, 1.0 mL of hybridoma medium was removed from each well and tested for anti-Factor IX antibodies using an ELISA assay as described by Jenny, R. J. et al. in Meth. Enzymol. 222, 400-416 (1993). Briefly, factor IX was immmobilized onto plastic wells of 96-well microtiter plates. Hybridoma supernatants or dilutions of purified antibody were then incubated in the wells. The wells were washed and the presence of antibody-antigen complexes detected with a goat anti-murine immunoglobulin second antibody conjugated to horseradish peroxidase and the chromogenic substrate o-dianisidine.
Target sequence in this assay (P00740 47-461): as above

[9] = test system: Cynomologous monkey Factor IX; assay: Species cross-reactivity, monkey Factor IX; assay type: binding
Factor IX gla domain = assay: Epitope mapping of BC2 with Factor IX/Factor VII chimeric constructs; assay type: binding
Description: A library of chimeric constructs composed of sequences of Factor IX spliced into the framework of the homologous protein Factor VII was constructed and used to map the epitope for the Factor IX BC2 mAb. See Cheung et al., Thromb. Res. 80, 419-427 (1995). Binding was measured using a BiaCore 2000 surface plasmon resonance device. The BC2 antibody was coupled directly to the chip using the NHS/EDC reaction. Binding was measured by 2 min of contact time at 20 uL/min with 200 nM of each of the given constructs in 25 mM MOPS, pH 7.4, 0.15 M NaCl, 5 mM CaCl2. Dissociation was monitored for 3 min using the same buffer with no protein. No binding was detected to the wild type construct in the presence of 50 mM EDTA.

T5 sequence (P00740 47-461 T194A): as the sequence (P00740 47-461) above, with T148A counted along it
T4 sequence (P00740 47-191 limits assumed): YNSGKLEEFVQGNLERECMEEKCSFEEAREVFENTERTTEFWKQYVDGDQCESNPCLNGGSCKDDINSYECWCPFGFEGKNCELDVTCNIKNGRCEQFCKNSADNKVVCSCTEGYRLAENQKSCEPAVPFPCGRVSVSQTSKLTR
T4 sequence (P00740 227-461 limits assumed): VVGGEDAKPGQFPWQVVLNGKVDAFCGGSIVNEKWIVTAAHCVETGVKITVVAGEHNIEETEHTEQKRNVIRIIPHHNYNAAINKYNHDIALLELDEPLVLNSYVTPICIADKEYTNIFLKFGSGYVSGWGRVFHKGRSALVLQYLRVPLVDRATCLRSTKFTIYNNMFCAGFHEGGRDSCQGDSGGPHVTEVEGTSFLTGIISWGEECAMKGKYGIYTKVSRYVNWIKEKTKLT
T2 sequence (P00740 47-191 limits assumed): as the sequence (P00740 47-191 limits assumed) above
T2 sequence (P00740 227-461 limits assumed): as the sequence (P00740 227-461 limits assumed) above
rat Factor IX, sequence (P16296 40-462): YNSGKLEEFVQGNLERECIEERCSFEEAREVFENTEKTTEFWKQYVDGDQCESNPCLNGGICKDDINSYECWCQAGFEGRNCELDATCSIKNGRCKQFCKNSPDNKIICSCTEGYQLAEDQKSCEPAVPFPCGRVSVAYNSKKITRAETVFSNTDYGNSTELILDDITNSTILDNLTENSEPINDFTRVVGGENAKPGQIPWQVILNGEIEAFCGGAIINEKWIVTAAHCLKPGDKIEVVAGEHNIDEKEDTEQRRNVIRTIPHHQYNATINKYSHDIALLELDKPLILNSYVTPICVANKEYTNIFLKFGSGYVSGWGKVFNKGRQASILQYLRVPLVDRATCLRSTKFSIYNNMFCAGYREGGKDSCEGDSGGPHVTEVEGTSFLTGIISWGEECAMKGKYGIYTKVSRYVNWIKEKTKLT
T1 sequence (P00740 47-461 T194A): as the sequence (P00740 47-461) above, with T148A counted along it
Factor IX to IXa conversion, sequence (P00740 29-461 limits assumed): as the sequence (P00740 29-461 limits assumed) above

B1: SB 249417: humanized anti-Factor IX mAb, heavy chain F9HZHC 1-1 (SEQ ID NO: 52), light chain F9HZLC 2-0 (SEQ ID NO: 74) (antibody, V domains shown)
VH: QVQLVQSGSELKKPGASVKVSCKASGYTFTNYGMNWVRQAPGQGLKWMGWINTRNGKSTYVDDFKGRFVFSLDSSVSTAYLQISSLKADDTAVYYCTREGNMDGYFPFTYWGQGTLVTVSS
VL: QIVLTQSPSSLSASVGDRVTITCRASSSVNYMHWYQQKPGKAPKPWIYATSNLASGVPSRFSGSGSGTDYTFTISSLQPEDIATYYCQQWSINPRTFGQGTKVEIKR
Q: Which results are given for B1?
A: Stoichiometry of Factor IX Binding, Isothermal Titration Calorimetry (rhFIX): 1.5 moles Factor IX: 1 mole mAb; effect on aPTT (FIG. 8) [1]: modest effect

B2: BC2: murine monoclonal antibody directed against human Factor IX and/or Factor IXa, isotype IgG2a (antibody, V domains shown)
VH: QIQLVQSGPELKKPGETVKISCKASGYTFTNYGMNWVKQAPGKGLKWMGWINTRNGKSTYVDDFKGRFAFSLESSASTANLQIDNLKDEDTATYFCTREGNMDGYFPFTYWGQGTLVTVSA
VL: QIVLSQSPAILSASPGEKVTMTCRASSSVNYMHWYQQKPGSSPKPWIYATSNLASGVPARFSGSGSGTSYSLTISRVEAEDAATYYCQQWSINPRTFGGGTKLEIKR
Q: Which “Binds Factor IXa” value (Factor IXa) does the source give for B2 here?
A: binds Factor IXa and yes

Q: And the Cofactor requirement (Factor IX [2])?
A: Divalent metal cofactors are required for activity; also recorded: Ca^2+ > Mn^2+

Q: What about the [formula] (row head is a formula not shown) (Factor IX [3]; Table I, the values are: max aPTT as % of normal aPTT) of the same molecule?
A: 350%

Q: What about the “aPTT at saturating concentrations of mAb” value (Factor IX [3]; normal human plasma, FIG. 1) of the same molecule?
A: about 90 sec

Q: And the “increase of the aPTT at saturating concentrations” value (Factor IX [3]; normal human plasma, FIG. 1)?
A: 3.5 fold

Q: What about the “maximal value of clot time in the aPTT assay” value (Factor IX [3]; self-limiting effect, summary description) of the same molecule?
A: about 100 seconds

Q: And the “effect on prothrombin time (PT) at 60 minutes (FIG. 5)” value [4]?
A: not by any of the Factor IX mAb doses

Q: And the “effect on thrombus weight (FIG. 7)” value [4]?
A: dose-dependently reduced

Q: And the “effect on carotid artery occlusion” value ([4]; Factor IX mAb at the two higher doses (3, 6 mg/kg bolus + infusion))?
A: completely blocked

Q: And the “effect on thrombus formation” value ([4]; high dose of Factor IX mAb)?
A: virtually prevented completely

Q: What about the “increase in clotting time (aPTT)” value ([4]; highest dose of Factor IX mAb (6 mg/kg bolus + 2 ug/kg/min)) of the same molecule?
A: ≤ 3 fold

Q: What about the “effect on carotid artery occlusion (patency)” value ([4]; lower dose of Factor IX mAb alone (1 mg/kg + 0.3 ug/kg/min)) of the same molecule?
A: largely failed to secure patency

Q: What about the “effect on aPTT at 60 minutes (FIG. 4)” value ([4]; regimens of b146-b150, given 15 minutes before injury) of the same molecule?
A: modest effect

Q: And the “Inhibits IXa activity in Xase complex” value [5]?
A: inhibits Factor IXa activity and yes

Q: What about the “Species cross-reactivity: rat Factor IX” value (rat Factor IX) of the same molecule?
A: cross-reacted; also recorded: species cross-reactivity with rat

Q: What about the “Inhibits IX to IXa conversion” value [6] of the same molecule?
A: yes

Q: And the kass [7]?
A: 480000 M⁻¹ s⁻¹

Q: What about the kdiss [7] of the same molecule?
A: 0.00091 s⁻¹

Q: What about the “Binds Factor IX” value (Factor IX [8]) of the same molecule?
A: yes

Q: And the “Species cross-reactivity: monkey Factor IX” value [9]?
A: cross-react

Q: And the epitope (Factor IX gla domain)?
A: residues 3-11 of the Factor IX gla domain
